Test results reported in patent US12006344 (Novo Nordisk, dated 2024).
Residue numbers refer to the chain shown, from its start. Names may count otherwise.

T1: human MIC-1 receptor (hGFRAL, GDNF family receptor alpha like) (human, UniProt Q6UXV0 19-394)
T1 sequence (looked up): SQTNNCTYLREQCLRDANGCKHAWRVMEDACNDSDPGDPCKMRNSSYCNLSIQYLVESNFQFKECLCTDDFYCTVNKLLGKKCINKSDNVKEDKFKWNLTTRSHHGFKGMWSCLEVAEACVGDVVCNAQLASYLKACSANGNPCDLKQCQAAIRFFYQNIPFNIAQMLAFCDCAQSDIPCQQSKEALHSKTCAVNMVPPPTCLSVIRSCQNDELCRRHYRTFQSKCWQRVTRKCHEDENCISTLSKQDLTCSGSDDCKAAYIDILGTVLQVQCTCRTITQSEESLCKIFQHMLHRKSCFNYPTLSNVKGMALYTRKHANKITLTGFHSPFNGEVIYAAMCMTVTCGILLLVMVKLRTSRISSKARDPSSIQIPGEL

B1: MIC-1 (SEQ ID NO: 1) (ligand)
chain: ARNGDHCPLGPGRCCRLHTVRASLEDLGWADWVLSPREVQVTMCIGACPSQFRAANMHAQIKTSLHRLKPDTVPAPCCVPASYNPMVLIQKTDTGVSLQTYDDLLAKDCHCI
B2: MIC-1(R2A, N3E, H18E) (ligand)
chain: B1 chain with R2A, N3E, H18E
B3: MIC-1(R2A, N3E, K69E) (ligand)
chain: B1 chain with R2A, N3E, K69E
B4: MIC-1(R2A, N3E, K107E) (ligand)
chain: B1 chain with R2A, N3E, K107E
B5: MIC-1(R2A, N3E, L68E) (ligand)
chain: B1 chain with R2A, N3E, L68E
B6: MIC-1(R2A, N3E, A47E) (ligand)
chain: B1 chain with R2A, N3E, A47E
B7: MIC-1(R2A, N3E, L105E) (ligand)
chain: B1 chain with R2A, N3E, L105E
B8: MIC-1(R2A, N3E, M57E) (ligand)
chain: B1 chain with R2A, N3E, M57E
B9: MIC-1(R2A, N3E, P85E) (ligand)
chain: B1 chain with R2A, N3E, P85E
B10: MIC-1(R2A, N3E, P11E) (ligand)
chain: B1 chain with R2A, N3E, P11E
B11: MIC-1(R2A, N3E, R21E) (ligand)
chain: B1 chain with R2A, N3E, R21E
B12: MIC-1(R2A, N3E, R53E) (ligand)
chain: B1 chain with R2A, N3E, R53E
B13: MIC-1(R2A, N3E) (ligand)
chain: B1 chain with R2A, N3E
B14: MIC-1(R2A, N3E, R67E) (ligand)
chain: B1 chain with R2A, N3E, R67E
B15: MIC-1(R2A, N3E, A30E) (ligand)
chain: B1 chain with R2A, N3E, A30E
B16: AEEAES-MIC-1-Δ1-3 (ligand)
chain: AEEAESGDHCPLGPGRCCRLHTVRASLEDLGWADWVLSPREVQVTMCIGACPSQFRAANMHAQIKTSLHRLKPDTVPAPCCVPASYNPMVLIQKTDTGVSLQTYDDLLAKDCHCI
B17: AES-MIC-1-Δ1-3 (ligand)
chain: B1 chain with R2E, N3S
B18: (AEE)2AES-MIC-1-Δ1-3 (ligand)
chain: AEEAEEAESGDHCPLGPGRCCRLHTVRASLEDLGWADWVLSPREVQVTMCIGACPSQFRAANMHAQIKTSLHRLKPDTVPAPCCVPASYNPMVLIQKTDTGVSLQTYDDLLAKDCHCI
B19: (GEPS)5-MIC-1 (SEQ ID NO: 1) (ligand)
chain: GEPSGEPSGEPSGEPSGEPSARNGDHCPLGPGRCCRLHTVRASLEDLGWADWVLSPREVQVTMCIGACPSQFRAANMHAQIKTSLHRLKPDTVPAPCCVPASYNPMVLIQKTDTGVSLQTYDDLLAKDCHCI
B20: SPAGSPTSTEEGTSESATPESGPG-MIC-1 (SEQ ID NO: 1) (ligand)
chain: SPAGSPTSTEEGTSESATPESGPGARNGDHCPLGPGRCCRLHTVRASLEDLGWADWVLSPREVQVTMCIGACPSQFRAANMHAQIKTSLHRLKPDTVPAPCCVPASYNPMVLIQKTDTGVSLQTYDDLLAKDCHCI
B21: (AEE)6AES-MIC-1(SEQ ID NO: 1) (ligand)
chain: AEEAEEAEEAEEAEEAEEAESGDHCPLGPGRCCRLHTVRASLEDLGWADWVLSPREVQVTMCIGACPSQFRAANMHAQIKTSLHRLKPDTVPAPCCVPASYNPMVLIQKTDTGVSLQTYDDLLAKDCHCI
B22: (AEE)5AES-MIC-1-Δ1-3 (ligand)
chain: AEEAEEAEEAEEAEEAESGDHCPLGPGRCCRLHTVRASLEDLGWADWVLSPREVQVTMCIGACPSQFRAANMHAQIKTSLHRLKPDTVPAPCCVPASYNPMVLIQKTDTGVSLQTYDDLLAKDCHCI
B23: (AEE)3AES-MIC-1-Δ1-3 (ligand)
chain: AEEAEEAEEAESGDHCPLGPGRCCRLHTVRASLEDLGWADWVLSPREVQVTMCIGACPSQFRAANMHAQIKTSLHRLKPDTVPAPCCVPASYNPMVLIQKTDTGVSLQTYDDLLAKDCHCI
B24: MIC-1(R2A, N3E, A54E) (ligand)
chain: B1 chain with R2A, N3E, A54E
B25: AASPAGSPTSTEEGTSESATPESGPG-MIC-1 (SEQ ID NO: 1) (ligand)
chain: AASPAGSPTSTEEGTSESATPESGPGARNGDHCPLGPGRCCRLHTVRASLEDLGWADWVLSPREVQVTMCIGACPSQFRAANMHAQIKTSLHRLKPDTVPAPCCVPASYNPMVLIQKTDTGVSLQTYDDLLAKDCHCI
B26: TSESATPESGPGTSESATPESGPG-MIC-1(R2A, N3E) (ligand)
chain: TSESATPESGPGTSESATPESGPGAAEGDHCPLGPGRCCRLHTVRASLEDLGWADWVLSPREVQVTMCIGACPSQFRAANMHAQIKTSLHRLKPDTVPAPCCVPASYNPMVLIQKTDTGVSLQTYDDLLAKDCHCI
B27: AASPAGSPTSTEEGTSESATPESGPG-MIC-1-Δ1-3 (ligand)
chain: AASPAGSPTSTEEGTSESATPESGPGGDHCPLGPGRCCRLHTVRASLEDLGWADWVLSPREVQVTMCIGACPSQFRAANMHAQIKTSLHRLKPDTVPAPCCVPASYNPMVLIQKTDTGVSLQTYDDLLAKDCHCI
B28: AAPEDEETPEQEGSGSGSGSGS-MIC-1-Δ1-3 (ligand)
chain: AAPEDEETPEQEGSGSGSGSGSGDHCPLGPGRCCRLHTVRASLEDLGWADWVLSPREVQVTMCIGACPSQFRAANMHAQIKTSLHRLKPDTVPAPCCVPASYNPMVLIQKTDTGVSLQTYDDLLAKDCHCI

Target: T1, human MIC-1 receptor (hGFRAL, GDNF …)
Assay: cell-based or functional assay

In order of falling “pERK EC50 (nM)” value:
1. B5  0.8 nM
2. B21  0.8 nM
3. B7  0.7 nM
4. B15  0.7 nM
5. B27  0.7 nM
6. B9  0.6 nM
7. B11  0.6 nM
8. B2  0.5 nM
9. B3  0.5 nM
10. B14  0.5 nM
11. B19  0.5 nM
12. B22  0.5 nM
13. B23  0.5 nM
14. B28  0.5 nM
15. B6  0.4 nM
16. B10  0.4 nM
17. B12  0.4 nM
18. B18  0.4 nM
19. B20  0.4 nM
20. B25  0.4 nM
21. B1  0.3 nM
22. B4  0.3 nM
23. B8  0.3 nM
24. B13  0.3 nM
25. B16  0.3 nM
26. B17  0.3 nM
27. B24  0.3 nM
28. B26  0.3 nM

In order of falling “pERK Emax (%)” value:
1. B1  100%
2. B2  100%
3. B3  100%
4. B4  100%
5. B5  100%
6. B6  100%
7. B7  100%
8. B9  100%
9. B10  100%
10. B11  100%
11. B12  100%
12. B13  100%
13. B14  100%
14. B15  100%
15. B16  100%
16. B17  100%
17. B18  100%
18. B19  100%
19. B20  100%
20. B21  100%
21. B22  100%
22. B23  100%
23. B24  100%
24. B25  100%
25. B26  100%
26. B27  100%
27. B28  100%
28. B8  70%
